Measurements published in the supplement of paper PMC9112550, “Optimization of the antimicrobial peptide Bac7 by deep mutational scanning” (BMC Biology, 2022).

System: Escherichia coli TOP10
Experiment: shrunken log2 fold change of peptide-encoding DNA abundance (4.5 h post-induction vs induction); higher = less antimicrobial activity (less host growth inhibition)
Conditions: time post-induction: 4.5 h; library: site-saturation at positions 5, 18, 19, 20
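Further: peptides expressed intracellularly from a pBAD plasmid library in pooled LB shake-flask culture, induced with 0.3% L-arabinose, DNA abundance read by NGS, three biological replicates, DESeq2 with apeglm shrinkage.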

| Sequence | shrunken log2 fold change |
| --- | --- |
| RRIRFRPPRLPRPRPRPFRVPRP | -0.119 |
| RRIRCRPPRLPRPRPRPHQWPRP | 0.321 |
| RRIRVRPPRLPRPRPRPMVMPRP | -0.0371 |
| RRIRHRPPRLPRPRPRPWVSPRP | -0.683 |
| RRIRRRPPRLPRPRPRPMMEPRP | -0.0732 |
| RRIRSRPPRLPRPRPRPPPCPRP | 0.408 |
| RRIRGRPPRLPRPRPRPWRKPRP | 0.12 |
| RRIRHRPPRLPRPRPRPGNFPRP | -0.537 |
| RRIRDRPPRLPRPRPRPRMAPRP | 0.465 |
| RRIRKRPPRLPRPRPRPECWPRP | 0.744 |
| RRIRVRPPRLPRPRPRPRLDPRP | 0.238 |
| RRIRKRPPRLPRPRPRPCGPPRP | -0.0191 |
| RRIRCRPPRLPRPRPRPFARPRP | 0.0264 |
| RRIRKRPPRLPRPRPRPGNMPRP | 0.257 |
| RRIRTRPPRLPRPRPRPEVEPRP | 0.0992 |
| RRIRFRPPRLPRPRPRPCIQPRP | -0.0483 |
| RRIRPRPPRLPRPRPRPWPPPRP | 0.504 |
| RRIRFRPPRLPRPRPRPNRKPRP | -0.173 |
| RRIRRRPPRLPRPRPRPRVLPRP | 0.349 |
| RRIRQRPPRLPRPRPRPERLPRP | -0.0028 |

| Sequence | shrunken log2 fold change |
| --- | --- |
| RRIRGRPPRLPRPRPRPSHRPRP | -0.0458 |
| RRIRSRPPRLPRPRPRPVHDPRP | -0.0657 |
| RRIRGRPPRLPRPRPRPIELPRP | -0.0084 |
| RRIRNRPPRLPRPRPRPKHPPRP | 0.111 |
| RRIRYRPPRLPRPRPRPLINPRP | -0.279 |
| RRIRSRPPRLPRPRPRPPANPRP | 0.283 |
| RRIRVRPPRLPRPRPRPICPPRP | -0.0804 |
| RRIRKRPPRLPRPRPRPACMPRP | 0.605 |
| RRIRSRPPRLPRPRPRPNFVPRP | -0.0465 |
| RRIRCRPPRLPRPRPRPNCYPRP | -0.209 |
| RRIRWRPPRLPRPRPRPGWTPRP | 0.253 |
| RRIRCRPPRLPRPRPRPGRPPRP | 0.106 |
| RRIRSRPPRLPRPRPRPWCLPRP | -0.11 |
| RRIRPRPPRLPRPRPRPNKEPRP | -0.406 |
| RRIRARPPRLPRPRPRPNAQPRP | 0.158 |
| RRIRARPPRLPRPRPRPSDAPRP | 0.396 |
| RRIRPRPPRLPRPRPRPNEEPRP | -0.0581 |
| RRIRCRPPRLPRPRPRPREFPRP | 0.339 |
| RRIRGRPPRLPRPRPRPYRRPRP | -0.00129 |
| RRIRLRPPRLPRPRPRPGSIPRP | -0.301 |

| Sequence | shrunken log2 fold change |
| --- | --- |
| RRIRSRPPRLPRPRPRPRKDPRP | 0.271 |
| RRIRDRPPRLPRPRPRPFMVPRP | 0.00751 |
| RRIRARPPRLPRPRPRPPYGPRP | 0.0793 |
| RRIRLRPPRLPRPRPRPCSVPRP | -0.0962 |
| RRIRIRPPRLPRPRPRPAWMPRP | 0.0797 |
| RRIRPRPPRLPRPRPRPFGDPRP | -0.0184 |
| RRIRGRPPRLPRPRPRPSMGPRP | 0.34 |
| RRIRHRPPRLPRPRPRPREAPRP | -0.0215 |
| RRIRSRPPRLPRPRPRPTCLPRP | -0.117 |
| RRIRIRPPRLPRPRPRPFYYPRP | -0.667 |
| RRIRTRPPRLPRPRPRPNEPPRP | -0.102 |
| RRIRPRPPRLPRPRPRPTVWPRP | 0.747 |
| RRIRWRPPRLPRPRPRPNDPPRP | -0.137 |
| RRIRCRPPRLPRPRPRPDGFPRP | -0.333 |
| RRIRCRPPRLPRPRPRPAKEPRP | -0.0092 |
| RRIRGRPPRLPRPRPRPAYQPRP | 0.254 |
| RRIRNRPPRLPRPRPRPVICPRP | -0.102 |
| RRIRFRPPRLPRPRPRPGMSPRP | 0.0155 |
| RRIRDRPPRLPRPRPRPRYTPRP | -0.219 |
| RRIRYRPPRLPRPRPRPAFWPRP | 0.444 |
